The record followed here is patent US20230242675A1 (SHANGHAI EPIMAB BIOTHERAPEUTICS, published 2023).

Where a chain is given by its changes, count along the chain named. Names may count otherwise.

Test [1] has as its target T1, human PD-L1/His fusion protein (human, UniProt Q9NZQ7 19-239). In words: BLI off-rate; test group 1. As to the method: (§1) Briefly, antibodies were characterized for affinities and binding kinetics by Octet®RED96 biolayer interferometry (Pall ForteBio LLC). Antibodies were captured by Anti-hIgG Fc Capture (AHC) Biosensors (Pall) at a concentration of 100 nM for 30 seconds. Sensors were then dipped into running buffer (1×pH 7.2 PBS, 0.05% Tween 20, 0.1% BSA) for 60 seconds to check baseline. Binding was measured by dipping sensors into a single concentration of recombinant human PD-L1/His fusion protein (Novoprotein). Dissociation was followed by dipping sensors into running buffer for 1200 seconds. The association and dissociation curves were fitted to a 1:1 Langmuir binding model using ForteBio Data Analysis software (Pall). […] The off-rate ratio serves as a data normalization. Accordingly, in each test group, the off-rate ratios of the humanized antibodies can be compared with that of the chimeric antibody, and the off-rate ratios of each of the humanized antibodies can be compared to one another within all test groups.

The target in test [2] is T1, human PD-L1/His fusion protein. The test can be described thus: BLI Octet RED96, antibody on AHC sensor, single conc. PD-L1/His; test group 1. As to the method: as §1
Background: Biolayer interferometry detects binding as a change in optical thickness at a sensor tip.

For test [3] the target is unchanged. The test can be described thus: BLI off-rate; test group 3. As to the method: as §1
The target is the same in test [4]. In words: BLI Octet RED96, antibody on AHC sensor, single conc. PD-L1/His; test group 3. As to the method: as §1
For test [5] the target is unchanged. In words: BLI off-rate; test group 2. As to the method: as §1
Test [6] shares this target. The test can be described thus: BLI Octet RED96, antibody on AHC sensor, single conc. PD-L1/His; test group 2. As to the method:
as §1

T1 sequence (Q9NZQ7 19-239 limits assumed): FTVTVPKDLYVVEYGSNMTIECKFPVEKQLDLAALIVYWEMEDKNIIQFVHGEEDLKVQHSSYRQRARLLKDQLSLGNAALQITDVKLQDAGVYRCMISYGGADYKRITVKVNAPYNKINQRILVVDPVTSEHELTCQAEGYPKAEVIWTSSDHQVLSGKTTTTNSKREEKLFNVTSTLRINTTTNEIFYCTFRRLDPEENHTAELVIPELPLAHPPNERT

B1: HuEM0005-87-1 (antibody, human IgG1, V domains shown)
VH: EVQLVQSGAEVKKPGASVKVSCKASGYTFTDYYINWVRQAPGQGLEWMGETIPNTGGTTYNQKFKARVTMTVDTSTSTVYMELSSLRSEDTAVYYCARYQSGSPFAYWGQGTTVTVSS
VL: DIVMTQSPDSLAVSLGERATINCKASQNVGTAVAWYQQKPGQPPKLLIYSASNRYTGVPDRFTGSGSGTDFTLTISSLQAEDVAVYYCQQHYSTPYTFGGGTKLEIK
notes: also called HuEM0005-87-l
Usually koff stands for the rate constant with which the complex falls apart. In the case of B1, the “Off-Rate Ratio to that of EM0005-87c” value in test [1] is 64%. The molecule also returned a koff in test [2] of 0.000937 s⁻¹.

B2: HuEM0005-87-2 (antibody, human IgG1, V domains shown)
VH: B1 VH with M70L
VL: B1 VL
In the case of B2, the “Off-Rate Ratio to that of EM0005-87c” value in test [1] came out at 54%. In addition, in test [2], the koff amounted to 0.000797 s⁻¹.

B3: HuEM0005-87-5 (antibody, human IgG1, V domains shown)
VH: B1 VH with T28S, R38K, M48I, R67K, V68A, M70L, V72R, T74K, V79A, S84K
VL: B1 VL
B3: the “Off-Rate Ratio to that of EM0005-87c” value in test [1] was determined as 64%. The off-rate constant (koff) in test [2] was 0.000947 s⁻¹.

B4: HuEM0005-87-4 (antibody, human IgG1, V domains shown)
VH: B1 VH with T28S, M48I, R67K, V68A, M70L, T74K, V79A
VL: B1 VL
As for B4, in test [1], the “Off-Rate Ratio to that of EM0005-87c” value turned out to be 52%. This molecule returned a koff in test [2] of 0.000768 s⁻¹.

B5: HuEM0005-87-18 (antibody, human IgG1, V domains shown)
VH: B1 VH with M48I, M70L, T74K
VL: EIVMTQSPATLSVSPGERATLSCKASQNVGTAVAWYQQKPGQAPRLLIYSASNRYTGVPDRFTGSGSGTEFTLTISSLQSEDFAVYYCQQHYSTPYTFGGGTKLEIK
On to B5, for which the “Off-Rate Ratio to that of EM0005-87c” value in test [3] turned out to be 75%. Also, the off-rate (koff) in test [4] stood at 0.00101 s⁻¹.

B6: HuEM0005-87-14 (antibody, human IgG1, V domains shown)
VH: B1 VH with T28S, M48I, R67K, V68A, M70L, T74K, V79A
VL: B5 VL with D60A, T63S
For B6, in test [3], the “Off-Rate Ratio to that of EM0005-87c” value is 80%. The koff in test [4] was found to be 0.00108 s⁻¹.

B7: HuEM0005-87-6 (antibody, human IgG1, V domains shown)
VH: B1 VH
VL: B5 VL with V58I, D60A, T63S
B7: in test [1], the “Off-Rate Ratio to that of EM0005-87c” value was 68%. The same molecule displayed a dissociation rate constant (koff) in test [2] of 0.000998 s⁻¹.

B8: HuEM0005-87-11 (antibody, human IgG1, V domains shown)
VH: B1 VH
VL: B5 VL with D60A, T63S
notes: also called HuEM0005-87-l l
On to B8, for which the “Off-Rate Ratio to that of EM0005-87c” value in test [5] came to 74%. Besides, in test [6], the koff came out at 0.000769 s⁻¹.

B9: HuEM0005-87-12 (antibody, human IgG1, V domains shown)
VH: B1 VH with M70L
VL: B5 VL with D60A, T63S
Consider B9, for which, in test [5], the “Off-Rate Ratio to that of EM0005-87c” value was determined as 77%. This molecule yielded an off-rate (koff) in test [6] of 0.000798 s⁻¹.

B10: HuEM0005-87-9 (antibody, human IgG1, V domains shown)
VH: B1 VH with T28S, M48I, R67K, V68A, M70L, T74K, V79A
VL: B5 VL with V58I, D60A, T63S
On to B10, for which, in test [5], the “Off-Rate Ratio to that of EM0005-87c” value turned out to be 84%. For the same molecule, in test [6], the koff is 0.000878 s⁻¹.

B11: HuEM0005-87-7 (antibody, human IgG1, V domains shown)
VH: B1 VH with M70L
VL: B5 VL with V58I, D60A, T63S
On to B11, for which the “Off-Rate Ratio to that of EM0005-87c” value in test [5] turned out to be 68%. Also, the off-rate constant (koff) in test [6] turned out to be 0.000709 s⁻¹.

B12: HuEM0005-87-8 (antibody, human IgG1, V domains shown)
VH: B1 VH with M48I, M70L, T74K
VL: B5 VL with V58I, D60A, T63S
Turning to B12, the “Off-Rate Ratio to that of EM0005-87c” value in test [5] was 81%. The molecule further had a koff in test [6] of 0.000844 s⁻¹.

B13: HuEM0005-87-3 (antibody, human IgG1, V domains shown)
VH: B1 VH with M48I, M70L, T74K
VL: B1 VL
B13: in test [1], the “Off-Rate Ratio to that of EM0005-87c” value is 63%. The molecule also showed a koff in test [2] of 0.000926 s⁻¹.

B14: HuEM0005-87-10 (antibody, human IgG1, V domains shown)
VH: B1 VH with T28S, R38K, M48I, R67K, V68A, M70L, V72R, T74K, V79A, S84K
VL: B5 VL with V58I, D60A, T63S
As to B14, in test [5], the “Off-Rate Ratio to that of EM0005-87c” value was determined as 96%. This molecule gave an off-rate (koff) in test [6] of 0.000994 s⁻¹.

B15: HuEM0005-87-13 (antibody, human IgG1, V domains shown)
VH: B1 VH with M48I, M70L, T74K
VL: B5 VL with D60A, T63S
As to B15, the “Off-Rate Ratio to that of EM0005-87c” value in test [3] came to 74%. The koff in test [4] is 0.001 s⁻¹.

B16: HuEM0005-90-5 (antibody, human IgG1, V domains shown)
VH: EVQLVQSGAEVKKPGASVKVSCKASGYTFTSHSINWVRQATGQGLEWMGYMYIGNGYTEYNEKFKGRVTLTSNTSISTAYMELSSLRSEDTAVYYCAKITPVVAPYVMDYWGQGTSVTVSS
VL: DIQMTQSPSFLSASVGDRVTITCKASQDVGTAVAWYQQKPGKAPKLLIYWASTRHTGVPSRFSGSGSGTEFTLTISSLQPEDFATYYCQQYSSYPYTFGQGTKLEIK
On to B16, for which the “Off-Rate Ratio to that of EM0005-90c” value in test [1] came to 107%. In test [2], this molecule displayed an off-rate constant (koff) of 0.00027 s⁻¹.

B17: HuEM0005-90-8 (antibody, human IgG1, V domains shown)
VH: B16 VH with A24T, M48I, V68A
VL: B16 VL
For B17, the “Off-Rate Ratio to that of EM0005-90c” value in test [5] is 102%. Also, the off-rate (koff) in test [6] came out at 0.000349 s⁻¹.

B18: HuEM0005-90-2 (antibody, human IgG1, V domains shown)
VH: B16 VH with M48I, V68A
VL: B16 VL with M4L
In the case of B18, the “Off-Rate Ratio to that of EM0005-90c” value in test [1] was 90%. In test [2], this molecule gave a koff of 0.000227 s⁻¹.

B19: HuEM0005-90-9 (antibody, human IgG1, V domains shown)
VH: B16 VH
VL: B16 VL with Q3V, E70D
In the case of B19, in test [5], the “Off-Rate Ratio to that of EM0005-90c” value turned out to be 109%. The molecule also came in with a koff in test [6] of 0.000373 s⁻¹.

B20: HuEM0005-90-3 (antibody, human IgG1, V domains shown)
VH: B16 VH with A24T, L70M
VL: B16 VL with M4L
On to B20, for which, in test [1], the “Off-Rate Ratio to that of EM0005-90c” value came to 120%. In test [2], this molecule displayed a koff of 0.000304 s⁻¹.

B21: HuEM0005-90-4 (antibody, human IgG1, V domains shown)
VH: B16 VH with A24T, M48I, V68A
VL: B16 VL with M4L
For the molecule B21, in test [1], the “Off-Rate Ratio to that of EM0005-90c” value came to 97%. The molecule further gave a koff in test [2] of 0.000246 s⁻¹.

B22: HuEM0005-90-12 (antibody, human IgG1, V domains shown)
VH: B16 VH with A24T, M48I, V68A
VL: B16 VL with Q3V, E70D
Consider B22, for which the “Off-Rate Ratio to that of EM0005-90c” value in test [5] came out at 100%. For the same molecule, the koff in test [6] worked out at 0.000342 s⁻¹.

B23: HuEM0005-90-10 (antibody, human IgG1, V domains shown)
VH: B16 VH with M48I, V68A
VL: B16 VL with Q3V, E70D
B23: the “Off-Rate Ratio to that of EM0005-90c” value in test [5] stood at 91%. For the same molecule, the koff in test [6] was 0.00031 s⁻¹.

B24: HuEM0005-90-6 (antibody, human IgG1, V domains shown)
VH: B16 VH with M48I, V68A
VL: B16 VL
In the case of B24, the “Off-Rate Ratio to that of EM0005-90c” value in test [1] was 100%. Besides, the koff in test [2] is 0.000254 s⁻¹.

B25: HuEM0005-90-11 (antibody, human IgG1, V domains shown)
VH: B16 VH with A24T, L70M
VL: B16 VL with Q3V, E70D
On to B25, for which, in test [5], the “Off-Rate Ratio to that of EM0005-90c” value amounted to 121%. The molecule also gave an off-rate (koff) in test [6] of 0.000414 s⁻¹.

B26: HuEM0005-90-7 (antibody, human IgG1, V domains shown)
VH: B16 VH with A24T, L70M
VL: B16 VL
As to B26, in test [5], the “Off-Rate Ratio to that of EM0005-90c” value was found to be 135%. For the same molecule, the off-rate constant (koff) in test [6] came to 0.00046 s⁻¹.

B27: HuEM0005-90-1 (antibody, human IgG1, V domains shown)
VH: B16 VH
VL: B16 VL with M4L
notes: measured without the G55A change
In the case of B27, the “Off-Rate Ratio to that of EM0005-90c” value in test [1] worked out at 102%. The molecule further displayed an off-rate constant (koff) in test [2] of 0.000259 s⁻¹.
